T1: Myo5 SH3 (MYO5_YEAST), Q04439
T1 chain: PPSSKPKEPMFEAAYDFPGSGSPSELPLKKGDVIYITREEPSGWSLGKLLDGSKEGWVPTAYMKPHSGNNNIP

T2: Abp1 SH3 (ABP1_YEAST), P15891
T2 chain: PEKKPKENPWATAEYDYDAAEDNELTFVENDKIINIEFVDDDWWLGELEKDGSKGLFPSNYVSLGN


Biological target: T1, Myo5 SH3 (MYO5_YEAST), Q04439
Test: SPOT array

| Binder | normalised SPOT signal, Boehringer light units (BLU); mean over the file's lines of this peptide |
| --- | --- |
| PLFGLSIPKTPTLK [YBL035C 102-115] | 122 |
| NPQSLARPPPPKRI [YKL139W 28-41] | 248 |
| PLTTLPPPRLPSIQ [YCR033W 1026-1039] | 2790 |
| PEVLMDQPYSPLSD [YAR018C 257-270] | 78.7 |
| PEVKHFSPSTPIML [YKR055W 169-182] | 93.7 |
| PEHLFNNPQNPMDF [YBR238C 623-636] | 157 |
| NLHGYGHPNPPNEK [YHR135C 370-383] | 217 |
| PEGVFSIPAPPPNV [YGR094W 179-192] | 82.5 |
| NLLSLENPVVPSHY [YIL137C 4-17] | 75.6 |
| PLNQLPNPAMPLLH [YER169W 383-396] | 104 |
| NPLYWLLPSHPYTI [YGL160W 297-310] | 165 |
| PETRMDLPFSPEVN [YDR171W 234-247] | 130 |
| PFSSMKEPFIPQSS [YBR172C 147-160] | 411 |

The next lines start with the values.

| normalised SPOT signal, Boehringer light units (BLU); mean over the file's lines of this peptide | Binder |
| --- | --- |
| 86.5 | NPFPFPIPEIPSTQ [YOR181W 270-283] |
| 98.9 | PFIDYEFPHLPNEL [YOR037W 215-228] |
| 47000 | PLPTFSAPSLPQQS [YLR337C 659-672] |
| 4750 | PLAPLPPPPPPSVA [YLR337C 421-434] |
| 107 | PEPTMGSPDAPPLV [YLR357W 573-586] |
| 145 | PFYTMPDPANPKYS [YLL018C 454-467] |
| 126 | PEDFLPPPPKPHFA [YLR285W 17-30] |
| 190 | NPGSMSMPGVPTSM [YNL288W 26-39] |
| 81.4 | NLAPFTQPDFPFQT [YOR260W 14-27] |
| 53300 | PAPPPPPPPPPPP [YNL271C 1278-1290] |
| 331 | PEVHHHSPGVPSLV [YLR229C 99-112] |
| 172 | PFGTFTLPADPEYK [YNL134C 307-320] |

Biological target: T2, Abp1 SH3 (ABP1_YEAST), P15891
Test: SPOT array

| Binder | normalised SPOT signal, Boehringer light units (BLU); mean over the file's lines of this peptide |
| --- | --- |
| NIETHENERLPPRP [YAL023C 524-537] | 117 |
| NIEDITEPKPDKP [YDR363W 94-106] | 75.1 |
| NGEEAEEVVVPEKP [YJL214W 46-59] | 539 |
| NHGFLLPPENIKP [YHR132C 397-409] | 6.9 |
| NESAPLQPFPERP [YFL041W 455-467] | 26.2 |
| NESFSLPPPQPKP [YFL044C 78-90] | 61.2 |
| NEDELDSPVQKKP [YKR086W 102-114] | 54.4 |
| NHAINRIPIKLRP [YGL156W 1061-1073] | 3450 |
| NHTIWVGPGKDKP [YHR015W 379-391] | 285 |
| NIPKPHIPYFMKP [YBR286W 82-94] | 1120 |

Second part, the binder after the results:

| normalised SPOT signal, Boehringer light units (BLU); mean over the file's lines of this peptide | Binder |
| --- | --- |
| 97 | NHASENTPRDGKP [YLR356W 137-149] |
| 77.6 | NEYKGLITIIPSKP [YOL152W 549-562] |
| 38.2 | NIPPPPPPPPPKP [YMR089C 153-165] |
| 217 | NESPRNVPIMVKP [YLL043W 210-222] |
| 185 | NFEVSHKPTVEKP [YPL095C 323-335] |
| 93.7 | NIKVLLNPKLGKP [YLL007C 14-26] |
| 387 | NIKMASFLPVPEKP [YNL206C 122-135] |

Source: publication PMC314469, “Protein Interaction Networks by Proteome Peptide Scanning” (PLoS Biology, 2004)
